The text below walks through data of patent US20230194547A1 (Hoffmann-La Roche, published 2023).

Assay [1] deals with T1, human FcRn beta-2-microglobulin complex, biotinylated, coupled to streptavidin Sepharose (human, UniProt P55899 24-297; P61769 21-119, limits assumed, biotinylated (Bulk BIRA kit, Avidity)).
T1 construct: Secreted complex purified from the supernatant; also called neonatal Fc receptor; human FcRn chromatography column
Kind of assay: FcRn affinity chromatography, pH gradient 5.5 to 8.8; dye-labelled antibody. On the procedure: (§1) The UV light absorption at a wavelength of 280 nm was used for detection. The column was regenerated for 10 minutes using 20% buffer B after each run.

Assay [2] deals with T1, human FcRn beta-2-microglobulin …. The assay is described as follows: FcRn affinity chromatography, pH gradient 5.5 to 8.8; unlabelled antibody. On the procedure:
as §1

T1 sequence (P55899 24-297 limits assumed, chain 1 of 2): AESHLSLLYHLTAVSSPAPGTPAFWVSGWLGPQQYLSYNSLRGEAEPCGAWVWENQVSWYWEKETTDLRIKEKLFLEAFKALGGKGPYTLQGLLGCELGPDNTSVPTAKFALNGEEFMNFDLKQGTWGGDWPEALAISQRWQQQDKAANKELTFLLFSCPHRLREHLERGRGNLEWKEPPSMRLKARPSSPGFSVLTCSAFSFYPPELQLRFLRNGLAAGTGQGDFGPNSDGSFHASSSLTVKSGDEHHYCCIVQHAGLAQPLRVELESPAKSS
T1 sequence (P61769 21-119 limits assumed, chain 2 of 2): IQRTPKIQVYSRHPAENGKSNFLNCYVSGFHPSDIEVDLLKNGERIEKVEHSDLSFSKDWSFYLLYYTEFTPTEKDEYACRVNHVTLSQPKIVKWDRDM

B1: anti-human phospho tau 422 antibody, labelled with pHAb dye (antibody, human IgG1, kappa, L234A L235A)
heavy: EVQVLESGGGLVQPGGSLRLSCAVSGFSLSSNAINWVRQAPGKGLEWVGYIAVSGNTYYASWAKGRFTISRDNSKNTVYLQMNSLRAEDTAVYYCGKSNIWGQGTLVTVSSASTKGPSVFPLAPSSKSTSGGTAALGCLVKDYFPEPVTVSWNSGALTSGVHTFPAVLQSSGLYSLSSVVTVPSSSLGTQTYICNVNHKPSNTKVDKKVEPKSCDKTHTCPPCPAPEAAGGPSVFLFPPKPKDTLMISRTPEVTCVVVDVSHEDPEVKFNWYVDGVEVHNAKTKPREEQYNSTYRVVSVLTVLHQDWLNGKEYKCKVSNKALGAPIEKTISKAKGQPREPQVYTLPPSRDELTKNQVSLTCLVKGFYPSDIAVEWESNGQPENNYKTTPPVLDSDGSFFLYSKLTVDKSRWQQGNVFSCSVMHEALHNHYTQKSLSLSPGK
light: AQVMTQSPSSLSASVGDRVTITCRSSQSVRTNRLAWFQQKPGQPPKRLIYSASTLDYGVPSRFSGSGSGTEFTLTISSLQPEDFATYYCLGYFDSSADIVAFGGGTKVEIKRTVAAPSVFIFPPSDEQLKSGTASVVCLLNNFYPREAKVQWKVDNALQSGNSQESVTEQDSKDSTYSLSSTLTLSKADYEKHKVYACEVTHQGLSSPVTKSFNRGEC
modifications: pHAb dye on a sulfo DBCO-PEG4-amine linker, clicked to the azide-modified N-glycan of the Fc-region
notes: also called anti-pTau antibody; anti-human p(422)Tau antibody
On to B1, for which, in assay [1], the “relative retention time on FcRn affinity column” value (from here on “relative retention time”) is 1.18 relative to anti-Her3 antibody standard.

B2: anti-human phospho tau 422 antibody (antibody, human IgG1, kappa, L234A L235A)
heavy: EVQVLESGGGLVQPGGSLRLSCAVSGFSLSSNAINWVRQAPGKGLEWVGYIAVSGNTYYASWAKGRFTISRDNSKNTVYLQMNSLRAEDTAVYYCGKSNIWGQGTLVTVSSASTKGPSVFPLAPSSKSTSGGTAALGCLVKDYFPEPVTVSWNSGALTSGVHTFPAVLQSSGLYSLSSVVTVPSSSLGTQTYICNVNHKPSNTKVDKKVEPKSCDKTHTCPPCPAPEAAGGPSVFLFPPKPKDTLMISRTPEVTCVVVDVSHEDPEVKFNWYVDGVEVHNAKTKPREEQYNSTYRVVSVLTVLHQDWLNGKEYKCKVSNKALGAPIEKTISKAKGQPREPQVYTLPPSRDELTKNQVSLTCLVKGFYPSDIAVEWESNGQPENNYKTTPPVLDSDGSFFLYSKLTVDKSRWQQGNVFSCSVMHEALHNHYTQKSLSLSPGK
light: AQVMTQSPSSLSASVGDRVTITCRSSQSVRTNRLAWFQQKPGQPPKRLIYSASTLDYGVPSRFSGSGSGTEFTLTISSLQPEDFATYYCLGYFDSSADIVAFGGGTKVEIKRTVAAPSVFIFPPSDEQLKSGTASVVCLLNNFYPREAKVQWKVDNALQSGNSQESVTEQDSKDSTYSLSSTLTLSKADYEKHKVYACEVTHQGLSSPVTKSFNRGEC
notes: IgG1, unlabelled; also called anti-pTau antibody; anti-human p(422)Tau antibody
Turning to B2, the “relative retention time” value in assay [2] is 1.13 relative to anti-Her3 antibody standard.

B3: Vedolizumab (antibody)
chain 1: not shown
chain 2: DVVMTQSPLSLPVTPGEPASISCRSSQSLAKSYGNTYLSWYLQKPGQSPQLLIYGISNRFSGVPDRFSGSGSGTDFTLKISRVEAEDVGVYYCLQGTHQPYTFGQGTKVEIKRTVAAPSVFIFPPSDEQLKSGTASVVCLLNNFYPREAKVQWKVDNALQSGNSQESVTEQDSKDSTYSLSSTLTLSKADYEKHKVYACEVTHQGLSSPVTKSFNRGEC
B3: the “relative retention time” value in assay [2] was 0.33 relative to anti-Her3 antibody standard.

B4: Ixekizumab (antibody)
chain 1: not shown
chain 2: DIVMTQTPLSLSVTPGQPASISCRSSRSLVHSRGNTYLHWYLQKPGQSPQLLIYKVSNRFIGVPDRFSGSGSGTDFTLKISRVEAEDVGVYYCSQSTHLPFTFGQGTKLEIKRTVAAPSVFIFPPSDEQLKSGTASVVCLLNNFYPREAKVQWKVDNALQSGNSQESVTEQDSKDSTYSLSSTLTLSKADYEKHKVYACEVTHQGLSSPVTKSFNRGEC
As to B4, the “relative retention time” value in assay [2] was 1.42 relative to anti-Her3 antibody standard.
